Reference: US20130195872A1 (NOVIMMUNE S A, published 2013)

T1: human IL-17A homodimer (human, UniProt Q16552 20-155, limits assumed)
T1 sequence (looked up): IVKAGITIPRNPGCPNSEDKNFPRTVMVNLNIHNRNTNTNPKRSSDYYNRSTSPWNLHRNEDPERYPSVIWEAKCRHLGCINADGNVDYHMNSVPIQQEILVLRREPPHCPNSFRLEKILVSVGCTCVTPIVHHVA

T2: human IL-17A/IL-17F heterodimer (human, UniProt Q16552 24-155; Q96PD4 31-163, limits assumed)
T2 sequence (looked up) 1: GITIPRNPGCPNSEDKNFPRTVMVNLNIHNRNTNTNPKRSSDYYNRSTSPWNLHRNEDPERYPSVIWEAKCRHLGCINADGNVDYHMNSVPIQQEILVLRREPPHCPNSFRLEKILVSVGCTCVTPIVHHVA
T2 sequence (looked up) 2: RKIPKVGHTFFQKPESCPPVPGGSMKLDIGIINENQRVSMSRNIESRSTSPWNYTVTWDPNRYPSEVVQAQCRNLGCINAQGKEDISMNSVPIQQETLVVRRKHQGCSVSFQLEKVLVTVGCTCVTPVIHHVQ

T3: cynomolgus IL-17F homodimer (cynomolgus, UniProt G7P4V0 31-163)
T3 sequence: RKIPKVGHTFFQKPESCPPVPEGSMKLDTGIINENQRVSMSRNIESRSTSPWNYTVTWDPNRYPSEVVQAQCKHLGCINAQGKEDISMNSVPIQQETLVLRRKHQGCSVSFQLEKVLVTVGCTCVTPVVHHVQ

T4: cynomolgus IL-17A homodimer (cynomolgus, UniProt A0A2K5TTB0 20-155)
T4 sequence: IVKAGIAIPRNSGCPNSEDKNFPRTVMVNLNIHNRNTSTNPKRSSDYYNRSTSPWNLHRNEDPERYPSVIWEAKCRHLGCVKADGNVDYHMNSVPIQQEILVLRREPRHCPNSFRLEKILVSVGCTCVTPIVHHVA

T5: mouse IL-17F homodimer (mouse, UniProt Q7TNI7 29-161, limits assumed)
T5 sequence (looked up): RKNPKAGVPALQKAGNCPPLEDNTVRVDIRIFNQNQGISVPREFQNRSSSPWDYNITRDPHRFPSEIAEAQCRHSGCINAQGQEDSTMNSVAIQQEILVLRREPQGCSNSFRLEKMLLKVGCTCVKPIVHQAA

T6: mouse IL-17A homodimer (mouse, UniProt Q62386 26-158, limits assumed)
T6 sequence (looked up): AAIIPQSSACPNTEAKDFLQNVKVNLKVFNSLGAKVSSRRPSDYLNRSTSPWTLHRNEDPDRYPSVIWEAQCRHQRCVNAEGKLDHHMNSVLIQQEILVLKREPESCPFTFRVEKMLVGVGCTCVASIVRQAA

T7: rat IL-17A homodimer (rat, UniProt Q61453 18-150, limits assumed)
T7 sequence (looked up): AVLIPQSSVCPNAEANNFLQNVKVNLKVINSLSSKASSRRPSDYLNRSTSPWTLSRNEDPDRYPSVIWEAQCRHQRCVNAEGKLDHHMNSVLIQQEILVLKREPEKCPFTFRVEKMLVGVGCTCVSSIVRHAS


Legend:
human IL-17A homodimer [1] = target: T1, human IL-17A homodimer; test: cell-based or functional assay
[2] = target: T2, human IL-17A/IL-17F heterodimer; test: cell-based or functional assay
[3] = target: T3, cynomolgus IL-17F homodimer; test: cell-based or functional assay
[4] = target: T4, cynomolgus IL-17A homodimer; test: cell-based or functional assay
[5] = target: cynomolgus IL-17A/IL-17F heterodimer (cynomolgus); test: cell-based or functional assay
mouse IL-17F homodimer = target: T5, mouse IL-17F homodimer; test: cell-based or functional assay
human IL-17A homodimer [6] = target: T1, human IL-17A homodimer; test: cell-based or functional assay; remark: listed apart in the source
[7] = target: T4, cynomolgus IL-17A homodimer; test: cell-based or functional assay; remark: listed apart in the source
human IL-17A homodimer [8] = target: T1, human IL-17A homodimer; test: SPR Biacore, mAb captured, cytokine as analyte
Description: (§1) The affinity and binding kinetics of huIL-17F cross-reactive antibodies were characterized on a Biacore 2000 instrument (Biacore AB, Uppsala, Sweden). […] This surface was used to capture huIL-17A/F antibodies. The surface was regenerated after each cycle by injection of 10 mM glycine pH=1.5 at 20 μL/min, for 30 s followed by 1 min of stabilization time in HBS-EP buffer (Biacore AB, Uppsala, Sweden).
(§2) All solutions were diluted in HBS-EP buffer. Injection was performed at 75 μl/min for 3 min followed by 12 min of dissociation time and the temperature was set at 25° C.

[9] = target: T2, human IL-17A/IL-17F heterodimer; test: SPR Biacore, mAb captured, cytokine as analyte
Description: as §1, §2

mouse IL-17A homodimer = target: T6, mouse IL-17A homodimer; test: cell-based or functional assay
rat IL-17A homodimer = target: T7, rat IL-17A homodimer; test: cell-based or functional assay

IC50, IL-6 secretion by MEF cells, cytokine at 5 ng/ml (human IL-17A homodimer [1]) | IC50, IL-6 secretion by MEF cells, cytokine at 17.5 ng/ml [2] | IC50, IL-6 secretion by MEF cells, cytokine at 25 ng/ml [3] | IC50, IL-6 secretion by MEF cells, cytokine at 5 ng/ml [4] | IC50, IL-6 secretion by MEF cells, cytokine at 25 ng/ml [5] | IC50, IL-6 secretion by MEF cells, cytokine at 50 ng/ml (mouse IL-17F homodimer) | IC50, IL-6 secretion by HFFF2 human fibroblasts, cytokine at 25 ng/ml (human IL-17A homodimer [6]) | IC50, IL-6 secretion by HFFF2 human fibroblasts, cytokine at 25 ng/ml [7] | Kd (human IL-17A homodimer [8]) | Kd [9] | IC50, IL-6 secretion by MEF cells, cytokine at 5 ng/ml (mouse IL-17A homodimer) | IC50, IL-6 secretion by MEF cells, cytokine at 5 ng/ml (rat IL-17A homodimer) | Binder
100 nM | 240 nM | 50 nM | 230 nM |  |  |  |  |  |  |  |  | 8B11 antibody (antibody, IgG3, V domains shown) VH: EVQLVESGGGLVHPGGSLRLSCAASGFTFSSFNMDWVRQAPGKGLEWVSSISTTSRIIYSADSVKGRFTISRDNARNSLYLQMNSLRDEDTAVYYCARVSYYGHGFDYWGQGTLVTVSS VL: DIQMTQSPSSLSASVGDRVTITCRASQGISSWLAWYQQKPEKAPKSLIYAASSLQSGVPSRFSGSGSGTDFTLTISSLQPEDFATYYCQQYNSYPLTFGGGTKVEIK
1.6 nM | 1.1 nM | 1.4 nM | 2 nM | 0.18 nM | > 1000 nM | 3.9 nM | 4.5 nM | 0.0364 nM | 0.0447 nM |  |  | 15E6 antibody (antibody, IgG4, V domains shown, also called 15E6 IgG4) VH: EVQLVESGGGLVQPGRSLRLSCAASGFTFDDYAMHWVRQAPGKGLEWVSGINWNSGGIGYADSVKGRFTISRDNAKNSLYLQMNSLRAEDTALYYCARDMGGFGEFYWNFGLWGRGTLVTVSS VL: not shown
33 nM | 13 nM | 3.2 nM | 13 nM |  | 4.2 nM |  |  |  |  | > 1000 nM | > 1000 nM | 12B12 antibody (antibody, IgG4, V domains shown) VH: QVQLVQSGAEVKKPGSSVKVSCKASGGTLSSYAFSWVRQAPGQGLEWMGGIIPFFGTVNYAQKFQGRVTITADESTNTAYMELSSLRSEDTAVYYCARDRDYYGLGSPLHYYGLDVWGQGTTVTVSS VL: EIVLTQSPDFQSVTPKEKVTITCRASQSIGSSLHWYQQKPDQSPKLLIKYASQSFSGVPSRFSGSGSGTDFTLTINSLEAEDAAAYYCHQSSSLPWTFGQGTKVEIK
9.8 nM | 11 nM | 5.2 nM | 4.7 nM | 16 nM | 4 nM | 14 nM | 15 nM | 0.0895 nM | 0.402 nM | > 1000 nM | > 1000 nM | 39F12 antibody (antibody, IgG4, V domains shown, also called Mab06a; 39F12 IgG4) VH: QVQLVQSGAEVKKPGSSVKVSCKASGGTLSSYAFSWVRQAPGQGLEWMGGIIPFFGTTNYAQKFQGRVIITADESTNTAYMELSGLRSEDTAVYYCARDRDYYGLGSPFYYYGMDVWGQGTTVTVSS VL: EIVLTQSPDFQSVTPKEKVTITCRASQSIGSSLHWYQQKPDQSPKLLIKYASQSFSGVPSRFSGSGSGTDFTLTINSLEAEDAAAYYCHQSSSLPWTFGQGTKVEIK
180 nM | 160 nM | 15 nM | 140 nM |  | 22 nM |  |  |  |  | > 1000 nM | > 1000 nM | 15B7 antibody (antibody, IgG4, V domains shown) VH: QVQLVQSGAEVKKPGSSVKVSCKASGGTLSSYAFSWVRQAPGQGLEWMGGIIPFFGTAHYAQKFQGRVTITADESTNTAYMELSSLRSEDTAVYYCARDRDYYGSGSPFHFSGLDVWGQGTTVTVSS VL: EIVLTQSPDFQSVTPKEKVTITCRASQSIGSSLHWYQQKPDQSPKLLIKYASQSFSGVPSRFSGSGSGTDFTLTINSLEAEDAAAYYCHQSSSLPWTFGQGTKVEIK
1.1 nM | 31 nM | 130 nM | 3 nM | 15 nM |  | 4.2 nM | 6.6 nM | 0.0594 nM | 0.0981 nM |  | > 1000 nM | 30D12 antibody (antibody, IgG1, V domains shown, Fully human monoclonal antibody; also called 30D12 IgG1) VH: QVQLVQSGAEVKKPGASVKVSCKASGYTFTSYDINWVRQATGQGLEWMGWMNPDSGVIRYAQKFQGRVTMTRNTSISTAYMELNSLRSEDTAVYYCAREWFGELPSYYFYSGMDVWGQGTTVTVSS VL: EIVLTQSPATLSLSPGERATLSCRASQSVSSYLAWYQQKPGQAPRLLIYDASNRATGIPARFSGSGSGTDFTLTISSLEPEDFAVYYCQQRSNWPPTFGPGTKVDIK
40 nM | 1.1 nM | 3.6 nM | 8.4 nM | 0.56 nM |  | 36 nM |  |  |  |  |  | 29D8 antibody (antibody, IgG1, V domains shown) VH: QVQLVQSGAEVKKPGASVKVSCKAFAYTFSTYGISWVRQAPGQGLEWMGWISAYNSNTNYAQKVQGRITMTTDTSTRTAYMELRGLRSDDTAVYFCATFFGGHSGYHYGLDVWGQGTTVTVSS VL: EIVLTQSPATLSLSPGERATLSCRASQSVSSYLAWYQQKPGQAPRLLIYDASNRATGIPARFSGSGSGTDFTLTISSLEPEDFAVYYCQQRSNWPPYTFGQGTKLEIK
480 nM | 16 nM | 3.4 nM | 330 nM |  |  |  |  |  |  |  |  | 1E4 antibody (antibody, IgG4, V domains shown) VH: QVQLVQSGAEVKKPGASVKVSCKASVYTFTTYGISWVRQAPGQGLEWMGWISVYNGNTNYGQNFQGRVSMTTDTSTSTAYMELRSLRSDDTAVYYCASFHGGHSGYHYGLDVWGQGTTVTVSS VL: EIVLTQSPATLSLSPGERATLSCRASQSVSSYLAWYQQKPGQAPRLLIYDASNRATGIPARFSGSGSGTDFTLTISSLEPEDFAVYYCQQRSNWPPYTFGQGTKLEIK
 | 9.2 nM | 4.2 nM | 290 nM |  |  |  |  |  |  |  |  | 31A3 antibody (antibody, IgG1, V domains shown) VH: QVQLVQSGAEVKKPGASVKVSCKASVYTFTTYGISWVRQAPGQGLEWMGWITVYNGNTNYAQKFHGRVTMTTDTSTSTAYMELRSLRSDDTAVYYCASFHGGHSGYHYGLDVWGQGTTVTVSS VL: EIVLTQSPATLSLSPGERATLSCRASQSVSSYLAWYQQKPGQAPRLLIYDASNRATGIPARFSGSGSGTDFTLTISSLEPEDFAVYYCQQRSNWPPYTFGQGTKLEIK
